# Assay results from patent US5756454.
# Key:
# [1] = target: collagen receptor on human platelets (human)
# [2] = target: collagen receptor on human platelets (human); remark: listed apart in the source
# [3] = target: collagen receptor (VL A 2) on MTLn3 cells (rat mammary tumor cells) (rat)
# [4] = target: collagen receptor on human platelets (human); remark: listed apart in the source
# [5] = target: collagen receptor (VL A 2) on MTLn3 cells (rat mammary tumor cells) (rat); remark: listed apart in the source
# [6] = target: collagen receptor on human platelets (human); remark: listed apart in the source
substance,measurement,setting,value
collagen-induced platelet aggregation inhibitor isolated from saliva of Triatoma pallidipennis,"released ATP, % of total ATP content, of collagen-treated platelets (30 µl = 10 µg protein of ""Superose""-pool; 49% without inhibitor) (% of total ATP content)",[1],2
same,"maximal aggregation of filtrated platelets induced with thrombin (0.06 U/ml), with 200 µl ""Superose""-pool (control 75%) (% maximal aggregation)",thrombin,75
same,"adherent platelets per mm^2 on collagen type I (50 µl of ""Superose""-pool at 0.5 mg protein/ml; 13500 without inhibitor) (adherent platelets per mm^2)",[2],6500
same,"cell attachment (cpm) of 51Cr-labelled MTLn3 cells to collagen type III (10 µl of ""Superose""-pool; 2215 cpm without inhibitor)",[3],1080 cpm
same,IC50 of inhibition of collagen-induced platelet aggregation (highly purified protein),[4],50 nM
same,"IC50 of inhibition of collagen-induced platelet aggregation (partially purified ""Superose""-pool)",[4],2.5 µg per ml
same,IC50 of adhesion-inhibition of metastatic tumor cells to collagen (highly purified protein),[5],100 nM
same,"inhibition of collagen-induced aggregation of human platelets (platelet-rich plasma, aggregometer; ""Superose""-pool) (% inhibition of aggregation)",[6],70
